The text below walks through data of patent US20230174626A1 (GlaxoSmithKline, published 2023).

Assay [1] has as its target ULs (UL128, UL130, UL131A of the HCMV Pentamer) on TB40 virus (Human Cytomegalovirus (HCMV), TB40 virus). Kind of assay: cell-based or functional assay.
Assay [2] addresses HCMV glycoprotein H (gH) on TB40 virus (Human Cytomegalovirus (HCMV), TB40 virus). Kind of assay: cell-based or functional assay.

B1: humanized 26B6 mAb (antibody, human IgG1, kappa, V domains shown)
VH: EVQLVESGGGLVKPGGSLKLSCAASGFTITDYYIYWLRQTPEKKLEWVAAISDGGRYTDYPDSVKGRFTMSSDNAKTNLYLQMGSLQSDDTGMYYCARWASYGYHWYFDVWGAGTTVTVSS
VL: DIQMTQTTSSLSASLGDRVTISCSASQDISNYINWYQQKRDGTVKLLIYDSSSLHSGVPSRFSGSGSGTDYSLTISNLEPEDFATYFCQQYSNLPPTFGGGTNLEIKR
As to B1, in assay [1], the “IC50 (µg/ml), HCMV TB40 neutralization on ARPE-19 epithelial cells” value (“IC50 (µg/ml) … on ARPE-19 epithelial cells” below) was determined as 0.00407 µg/mL and the “IC50 (µg/ml), HCMV TB40 neutralization on MRC-5 fibroblasts” value (from here on “IC50 (µg/ml) … on MRC-5 fibroblasts”) was above 10 µg/mL.

B2: humanized 23C2 mAb (antibody, human IgG1, kappa, V domains shown)
VH: DVQLQESGPGLVKPSQSLSLTCSVTGYSIKSGYYWNWIRQFPGNKLEWMGYISYGGDFTYNPSLKNRISITRDTSKNQFFLKLNSVTTEDTATYFCVREPNWESYFDIWGAGTTVTVSS
VL: DIQMTQSPASLSASVGETVTITCRASDNIYSYLTWYHQKQGKSPHLLVYNAKTLPEGVPLRFSGTGSGTQFSLKINSLQPEDFGIYFCLHDYGFPRTFGGGTILEVKR
As to B2, in assay [1], the “IC50 (µg/ml) … on ARPE-19 epithelial cells” value turned out to be 0.0031 µg/mL and the “IC50 (µg/ml) … on MRC-5 fibroblasts” value was above 10 µg/mL.

B3: humanized 2C7 mAb (antibody, human IgG1, kappa, V domains shown)
VH: EVQLQQSGPELEKPGASVKISCKASGYSFTGYNMNWVKQSNGKSLEWIGNIDPYFGGTSYNQKFKGKATLTVDKSSSTAYMELKSLTSEDSAVYYCARHYGYFPWFAYWGQGTLVTVSA
VL: DIVLTQSPASLAVSLGQRATISCRASESVDSSGNSFMHWYQQKPGQPPKLLIYRASNLESGIPARFSGSGSRTDFTLTINPVGADDVATYYCQQSNEDPWTFGGGTKLEIKR
For the molecule B3, in assay [2], the “IC50 (µg/ml) … on ARPE-19 epithelial cells” value is 0.0915 µg/mL and the “IC50 (µg/ml) … on MRC-5 fibroblasts” value was 0.53 µg/mL.
